Laboratory results reported in paper PMC11407402.
Several values for one entry are separate records, joined by “and”; a condition that tells them apart may be missing. Identical values can stand only once.

Biological target: non-glycosylated recombinant FcγRIIIa, 158 V allele, immobilised in the TSKgel FcγR-IIIA-NPR column
Test: affinity HPLC on immobilised receptor

anti-CD20 antibody (rituximab V regions), wild-type human IgG1
elution time: 14.4 min and 16.2 min and 17.9 min | mean elution time: 15.5 min
